Test results as given in patent US9121022B2, “Method for controlling herbicide-resistant plants” (priority 2010, dated 2015).

System: Glyphosate-sensitive Palmer amaranth (Amaranthus palmeri) plants
Test: HPPD, PPO and TIF anti-sense ssDNA with mesotrione, fomesafen or atrazine, plant height (Example 28, Tables 18 and 19)
Assay type: in vivo
Conditions: four days after herbicide treatment
Method: The herbicidal activity of ssDNA polynucleotides that target the enzymes […] and protoporphyrinogen oxidase (PPO), and a transcription initiation factor (TIF), and their effect on the herbicide activity when used in combination with the herbicides mesotrione, fomesafen, and atrazine in Palmer amaranth was investigated.
Glyphosate-sensitive Palmer amaranth (Amaranthus palmeri) plants were grown in 4-inch square pots with Sun Gro® Redi-Earth seedling mix containing 3.5 kg/cubic meter Osmocote® 14-14-14 fertilizer in a greenhouse with 14 h photoperiod and a daytime temperature of 30 degrees Celsius and night temperature of 20 degrees Celsius. The plants were sub-irrigated as necessary.
Some plants were left untreated and were used as controls. […] Crop oil concentrate (COC) at 1% was added to all herbicide treatments.
Plant height was determined at four days after herbicide treatment. Data were collected from one experiment with four replications per treatment.

B1: HPPD anti-sense ssDNA oligonucleotides: 8 HPPD anti-sense ssDNA oligonucleotides (SEQ ID NOS:141-148) (nucleic acid)
antisense 1: TCCGTAGCTTACATACCGAAG
antisense 2: TCCAAGTGAATAGGAGAAACA
antisense 3: AGCAGCTTCTGCGTCTTCTAC
antisense 4: ACAGCACGCACGCCAAGACCG
antisense 5: CGATGTAAGGAATTTGGTAAA
antisense 6: CGAGGGGATTGCAGCAGAAGA
antisense 7: GTAGGAGAATACGGTGAAGTA
antisense 8: GACCCCAAGAAAATCGTCTGC
modifications: DNA, backbone and methylation of C not given here
For B1, the “growth reduction relative to the buffer-surfactant control” value was 32%.
